Assay results as given in PMC9696605 (Viruses, 2022).
Where no end group is shown, it is not given here. [ ]: non-standard residue; d: D form. pT = C[C@@H](OP(=O)(O)O)[C@H](N)C(=O)O

Assays:
[1] = target: T1, SH3 domain of human Fyn (Fyn-SH3), 15N-labelled (human, UniProt P06241 82-142); experiment: NMR titration; conditions: both partners purified
T1 construct: also called 15N-Fyn-SH3

[2] = target: human neural precursor cell expressed developmentally down-regulated protein 4-like WW3* domain (hNedd4L-WW3*) (human, UniProt Q96PU5 497-530); experiment: ITC; conditions: both partners purified
Sequence of human neural precursor cell expressed developmentally down-regulated protein 4-like WW3* domain (hNedd4L-WW3*) (Q96PU5 497-530): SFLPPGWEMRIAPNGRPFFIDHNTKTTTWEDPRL

T1 sequence (P06241 82-142): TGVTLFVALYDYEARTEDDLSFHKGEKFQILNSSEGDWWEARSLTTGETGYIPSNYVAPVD

Binder | Kd [1] | Kd [2]
MDRPRTPPPSYSEVL (source: synthetic peptide (Fmoc solid phase, C18 HPLC purified)) [U24-6B(1-15), 15-residue peptide of the N-terminal region of U24 from HHV-6B] | 0.5 ± 0.2 mM | 8.9 µM
MDPPR[pT]PPPSYSEVL (source: synthetic peptide, bought: Genscript) [pU24-6A(1-15), U24-6A peptide with phospho-threonine 6] | ≥ 12 mM | 
MDPPRTPPPSYSEVL (source: synthetic peptide (Fmoc solid phase, C18 HPLC purified)) [U24-6A(1-15), 15-residue peptide of the N-terminal region of U24 from HHV-6A] |  | 8.5 µM
MDRPR[pT]PPPSYSEVL (source: synthetic peptide, bought: Genscript) [pU24-6B(1-15), U24-6B peptide with phospho-threonine 6] | ≥ 5 mM | 
